The results in this text go back to article PMC12486124 (bioRxiv, 2025).

The target of the test is reconstituted nucleosome (Xenopus laevis histone octamer on Widom 601 DNA) (Xenopus laevis). In words: fluorescence polarisation. (Fluorescence polarisation rises when a labelled molecule tumbles more slowly, as on binding a larger partner.)

In general, Kd refers to the free concentration of one partner at which half of the binding sites on the other are occupied at equilibrium, for simple one-to-one binding.

B1: E2F1-DP2 DNA binding domains heterodimer (complex)
chain 1: not shown
chain 2: KNGKGLRHFSMKVCEKVQRKGTTSYNEVADELVSEFTNSNNHLAADSAYDQKNIRRRVYDALNVLMAMNIISKEKKEIKWIG
In the case of B1, the Kd worked out at 120 ± 10 nM.
